In article doi:10.1101/2025.08.04.668577 (bioRxiv, 2025):

Molecular target: E2 ectodomain of HCV strain 1a154 (Hepatitis C virus genotype 1a, isolate …, strain)
Assay: ELISA

binding result: binds
B1: HEPC108 IgG (antibody, V domains shown)
VH: QVQLVQSGAEVKKPGSSVKVSCKASGDTFSSSAISWVRQAPGQGLEWMGGSIPIFGATKYAQKFQGRVTITTDKSTSTAYMELSSLRFEDTAVYYCARASIVNISGFVRFRFDSWGQGTLVTVSS
VL: DIQMTQSPSSLSASVGDRVTITCQASQDISNYLNWYQQKPGKAPKLLIYDVSNLEIGVPSRFSGSGSGTEFTLTINSLQPEDLATYFCQHYDDVPPVYTFGQGTSLEIK
